Values of other authors as cited in patent publication US10544449B2, “Bis-biotinylation tags” (Pacific Biosciences of California, Inc., priority 2013, dated 2020).

How the values were obtained:
[1] = cited from earlier work
[2] = compared with streptavidin; cited from earlier work

Substance | accumulation in kidney, share of injected dose ([1]; injected streptavidin) | time remaining in the kidneys ([1]; mice, rats, and rabbits) [days] | slower biotin off-rate [2] [fold]
streptavidin | 15-20% | 3 to 4 | –
traptavidin | – | – | ~10
